# Source: patent publication US20220218850A1, “Methods and Compositions for Two-Stage Microbubble Delivery of Active Agents” (Virginia Commonwealth University, priority 2021, published 2022)
# B1: Alexa Fluor-His-MDA-7: His tagged MDA-7/IL-24 protein labeled with Alexa Fluor 488, complexed with microbubbles (protein, UniProt Q13007 52-206, looked up)
# Interleukin-24: QEFHFGPCQVKGVVPQKLWEAFWAVKDTMQAQDNITSARLLQQEVLQNVSDAESCYLVHTLLEFYLKTVFKNYHNRTVEVRTLKSFSTLANNFVLIVSQLQPSQENEMFSIRDSAHRRFLLFRRAFKQLDVEAALTKALGEVDILLTWMQKFYKL
# modifications: His tag, Alexa Fluor 488, microbubble complex
# notes: His tagged MDA-7/IL-24 protein labeled with Alexa Fluor 488, complexed with microbubbles
# Test system: DU-145 tumor xenografts
# Assay: UTMD delivery of Alexa Fluor-His-MDA-7/MB complex to DU-145 xenografts
# Assay type: in vivo, mice
# Details: tail vein, ultrasound at left flank tumor (UTMD)
# Description: DU-145 human prostate cancer cells were established as xenografts in the left flank of nude mice. Alexa Fluor labeled His-MDA-7/MBs complex were injected through the tail vein of nude mice, and sonoporated in the xenograft (DU-145) tumor implanted in the left flank with a portable ultrasound (SonoSite Micro-Maxx US platform) equipped with an L25 linear array transducer set at 0.7 Mechanical Index, 1.8 MPa for 10 min (UTMD approach). The fluorescent image was captured using Xenogen IVIS spectrum. […] Lighter color indicates higher fluorescent intensity.
# In addition to delivering therapeutic viruses systemically, we also tested the possibility of using MBs and a UTMD approach to deliver therapeutic proteins in vivo. His tagged MDA-7/IL-24 (His-MDA-7) was purified by using Ni-NTA column chromatography. 1 mg/ml of His-MDA-7 solution was mixed with Alexa Fluor 488 containing 0.1 M Sodium bicarbonate, followed by removal of unincorporated dye by centrifugation using centricon (3 kD cut off MW). Confirmation of labeling of His-MDA-7 (Alexa Fluor-His-MDA-7) was obtained spectroflurometrically based on emission spectra changes. The Alexa Fluor-His-MDA-7 was incubated overnight with MBs and localization of the labeled protein complex in the MBs was monitored by green fluorescence and found to be associated with the lipid shell of the MB (FIG. 3A). […]
molecule,measurement,setting,value
B1,localisation of labeled protein (fluorescent image),,mostly localized in the left flank where ultrasound was applied
same,localisation of labeled protein (fluorescent image),listed as Alexa Fluor-MDA-7,located predominantly in the tumor in the left flank of mice
